Results as given in PMC7242495.

Tested on: T1, CadR (Pseudomonas aeruginosa), ORF:ef015ded
T1 sequence: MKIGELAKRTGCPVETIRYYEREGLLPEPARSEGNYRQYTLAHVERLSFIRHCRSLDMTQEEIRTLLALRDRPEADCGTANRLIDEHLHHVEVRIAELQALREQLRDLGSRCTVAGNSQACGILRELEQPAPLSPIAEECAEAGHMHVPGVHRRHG
Assay: EMSA
Details: EMSA: 10 mM Tris pH 8.0, 40 mM KCl, 10 mM MgCl2, 1 mM DTT, 5% glycerol, 250 nM CadR, 25 ng DNA, +/- Zn or EDTA, 30 min room temperature, gel at 4 C …

Sequence | binding
CCATGATCATGTCCGTGACCGTGACCGTGACAGCAAGTGTCGGCGTGTTCGTGGCTCATGGAAACAATTCCCGTTTGACGTGTTGGGTGCGATTGCACACCCTGTAGCAACTACAGAGTCAAGCGGTACTGCCAATTCGGGTAGCCGCGTCGGCGATTGGAGGAGGGTTGGCATGAAGATCGGTGAGCTGGCGAAGAGAACCGGTT (double strand) [pcadA WT promoter (EMSA)] | binds
GCTTCCGGTCAGCAGCAACGCCCATTTCAGGCGGGTCGAGTTGGTCTGGGCGAAGCTGTGCTCGTGTCCGGCGCTCATGGCGGCTCCTGTGGGGCGGTGGCGGCAGCACCAGCCTACAGGATAGGCAATTGCAAAACTGTCATGCGCCGGGCCGCTCTGGCGCGGCGTCCGCCGCTCCGCTAACCTGCGGCTCAGGCGCGGCCGCAGCCGCGCACGGAACGAGGGGGACGCATGACTCAACAGCACGA (double strand) [pczcD] | no binding
